Values of other authors, collected in publication PMC6858787.

Biological target: CheY (Thermotoga maritima) (UniProt Q56312)
Sequence of UniProt Q56312 (Q56312 whole entry): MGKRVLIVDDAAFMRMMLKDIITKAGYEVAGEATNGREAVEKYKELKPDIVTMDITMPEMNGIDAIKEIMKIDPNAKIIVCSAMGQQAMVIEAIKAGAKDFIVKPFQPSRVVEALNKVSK

CheA CheY binding domain (from UniProt Q56310)
Kd: 200 nM
